B1: EW 9C (antibody, V domains shown)
VH: EVQLVESGGGVVQPGASLRLSCVASGFTFNNFGFHWVRQAPGKGLEWLAVISYEGSKTYYAESLKGRFTISRDTSKNTVYLQMNSLRAEDTAVYYCARATSIFWFGEGRNWFDPWGQGTMVTVSS
VL: EIVLTQSPGTVSLSAGERATLSCRASQNVGTDLAWYVQRPGQAPRLLIYDTSNKATGIPARFSGRGSGTDFTLTIDSLEPEDFAVYYCQQRSNWPLTFGGGTKVEIR
B2: EW 9C-1 (antibody, V domains shown)
VH: EVQLVESGGGVVQPGASLRLSCVASGFTFNNFGFHWVRQAPGKGLEWLAVISYEGSKTYYAESLKGRFTISRDTSKNTVYLQMNSLRAEDTAVYYCARATSIFWFGEGRNWFDPWGQGALVTVSS
VL: EIVMTQSPGTVSLSAGERATLSCRASQNVGTDLAWYVQRPGQAPRLLIYDTSNRATGIPARFSGRGSGTDFTLTIDSLEPEDFAVYYCQQRSNWPLTFGGGTKVEIK
B3: FM 1A (antibody, V domains shown)
VH: EVQLLESGGGVVQPGRSLRLSCAASGFTFSSYGMHWVRQAPGKGLEWVAVIWYDGSNKYYADSVKGRFTISRDNSKNTLYLQMNSLRAEDTAVYYCAREGAVGATRGFDYWGQGTLVTVSS
VL: SYELTQPPSVSVAPGQTARITCGGNNIGSKSVHWYQQKPGQAPVLVVYDDSDRPSGIPERFSGSNSGNTATLTISRVEAGDEADYYCQVWDSSSDQGVFGGGTKLTVL
B4: EW 4C (antibody, V domains shown)
VH: EVQLVESGPGLVKPSETLSLTCSVSADSFKKGYYWGWIRQPPGKGLESIVNSFDSGTTRYNPSLWGRATVSDMSKWHFSLKLTSVTAADTAVYYCVRGTYGSGLHWGQGILVTVSS
VL: QTVVTQEPSLTVSPGGTVTLTCGSSVGTVASGHYPYWVQQKPGQAPRTLIYDTDNKQSWTPARFSGSLLGGKAALTLSGAQPEDEADYYCFLSHNDAWVFGGGTKLTVL
B5: FD 5D (antibody, V domains shown)
VH: EVQLVESGGGLVQPGGSLRLSCAASGFTFSSYSMNWVRQAPGKGLEWVSYISSSSSTIYYADPVKGRFTISRDNAKNSLYLQMNSLRAEDTAVYYCASPGGITAAGTSVLFGYYGMDVWGQGTMVTVSS
VL: not shown
B6: EY 2A (antibody, V domains shown)
VH: QVQLVESGAEVTKPGDSLIISCKGSGYAFTQYWIGWVRQKPGKGLEWMAMVYPDSSAVFAGGASGVRYRPPFQGQVTISADTSVNTAYLQWDSLKASDTAMYYCVRQERGSNTWYAGNSWGQGTLVTVSS
VL: DIVMTQSPLSLPVSPGEPASISCRSSQSLLHTDAYNYLDWYLQKPGQSPQLLIYLGSTRASGVPDRFSGSGSGTDFTLKISSVKAEDVGVYYCMQALQTPGTFGQGTKLEIK
B7: EY 3B (antibody, V domains shown)
VH: EVQLVESGAEVTKPGESLIISCKGSGYAFTQYWIGWVRQKPGKGLEWMAMVYPDSSAVFAGGASGVRYRPPFQGQVTISADTSVNTAYLQWDSLKASDTAMYYCVRQERGSNTWYAGNSWGQGTLVTVFS
VL: EIVLTQSPLSLPVSPGEPASISCRSSQSLLHTDAYNYLDWYLQKPGQSPQLLIYLGSTRASGVPDRFSGSGSGTDFTLKISSVKAEDVGVYYCMQALQTPGTFGQGTKVEIR
B8: FD 10A (antibody, V domains shown)
VH: EVQLVESGGGLVQPGGSLRLSCAASGFTFSSYWMHWVRQAPGKGLVWVSRINSDGSSTSYADSVKGRFTISRDNAKNTLYLQMNSLRAEDTAVYYCANMAFDIWGQGTMVTVSS
VL: not shown
B9: FD 5E (antibody, V domains shown)
VH: EVQLVESGGVVVQPGGSLRLSCAASGFTFDDYAMHWVRQAPGKGLEWVSLISWDGGSTYYADSVKGRFTISRDNSKNSLYLQMNSLRAEDTALYYCAKDSVRFRYYYGMDVWGQGTTVTVSS
VL: EIVLTQSPATLSLSPGERATLSCRASQSVSSYLAWYQQKPGQAPRLLIYDASNRATGIPARFSGSGSGTDFTLTISSLEPEDFAVYYCQQRSNWPLTFGPGTKVDIK
B10: EW 9B (antibody, V domains shown)
VH: EVQLVQSGAEVKKPGASVKVSCKASGYTFTSYYMHWVRQAPGQGLEWMGIINPSGGSTSYAQKFQGRVTMTRDTSTSTVYMELSSLRSEDTAVYYCAREDGVVPAANLMISLEDYYYYGMDVWGQGTTVTVSS
VL: EIVLTQSPATLSLSPGERATLSCRASQSVSSYLAWYQQKPGQAPRLLIYDASNRATGIPARFSGSGSGTDFTLTISSLEPEDFAVYYCQQRSNWPLTFGGGTKVDIK
B11: FD 11A (antibody, V domains shown)
VH: EVQLVESGGGVVQPGRSLRLSCAASGFTFSSYGMHWVRQAPGKGLEWVAVIWYDGSNKYYADSVKGRFTISRDNSKNTLYLQMNSLRAEDTAVYYCAKGPDILTGYYNYYYYGMDVWGQGTMVTVSS
VL: QSVLTQPPSVSGAPGQRVTISCTGSSSNIGAGYDVHWYQQLPGTAPKLLIYGNSNRPSGVPDRFSGSKSGTSASLAITGLQAEDEADYYCQSYDSSLSGFYVVFGGGTKLTVL
B12: FG 7A (antibody, V domains shown)
VH: EVQLVESGGGVVQPGRSLRLSCAASGFTFSSYAMHWVRQAPGKGLEWVAVISYDGSNKYYADSVKGRFTISRDNSKNTLYLQMNSLRAEDTAVYYCARSHSGSYRASLDYWGQGTTVTVSS
VL: not shown
B13: FD 1D (antibody, V domains shown)
VH: EVQLVESGGGVVQPGRSLRLSCAASGFTFSSYAMHWVRQAPGKGLEWVAVISYDGSNKYYADSVKGRFTISRDNSKNTLYLQMNSLRAEDTAVYYCARAGSGSYLNWFDPWGQGTLVTVSS
VL: EIVLTQSPATLSLSPGERATLSCRASQSVSSYLAWYQQKPGQAPRLLIYDASNRATGIPARFSGSGSGTDFTLTISSLEPEDFAVYYCQQRSNWPITFGQGTRLEIK
B14: FI 3A (antibody, V domains shown)
VH: EVQLLESGGGLIQPGGSLRLSCAASGFTVSSNYMSWVRQAPGKGLEWVSVIYSGGSTYYADSVKGRFTISRDNSKNTLYLQMNSLRAEDTAVYYCARDHVRPGMNIWGQGTMVTVSS
VL: not shown
notes: also called FI 03A
B15: EY 6A (antibody, V domains shown)
VH: EVQLVESGGGVVQPGRSLRLSCAASAFTFSSYDMHWVRQAPGKGLEWVAVISYDGSNKYYADSVKGRFTISRDNSKNTLYLQMNSLRAEDTAVYYCAKDGGKLWVYYFDYWGQGTTVTVSS
VL: not shown

How the values were obtained:
[1] = target: T1, spike glycoprotein of wild type SARS-CoV-2 virus (SARS-CoV-2, UniProt P0DTC2 14-1273); test: cell-based or functional assay
[2] = target: T2, SARS-CoV-2 spike receptor binding domain (RBD) (SARS-CoV-2, UniProt P0DTC2 319-541); test: ELISA
T2 construct: also called SARS-CoV-2 RBD

SARS spike S1 subunit = target: T3, SARS spike S1 subunit (severe acute respiratory syndrome …, UniProt P59594 14-667); test: ELISA
T3 construct: domain: S1 subunit

[3] = target: T4, SARS-CoV-2 spike S1 subunit (SARS-CoV-2, UniProt P0DTC2 16-685); test: ELISA
T4 construct: domain: S1 subunit

[4] = target: T5, Human coronavirus OC43 spike extracellular domain (human coronavirus OC43, UniProt P36334 14-1297); test: ELISA
T5 construct: extracellular domain

[5] = target: T6, MERS spike extracellular domain (Middle East respiratory syndrome …, UniProt K9N5Q8 18-1296); test: ELISA
T6 construct: extracellular domain

[6] = target: T1, spike glycoprotein of wild type …; test: cell-based or functional assay; remark: listed apart in the source
[7] = target: T7, SARS-CoV-2 nucleocapsid in fixed and permeabilised SARS-CoV-2 infected cells (SARS-CoV-2, UniProt P0DTC9 1-419); test: immunofluorescence assay
T7 construct: whole, on cells; also called N antigen

[8] = target: T8, SARS-CoV-2 nucleocapsid protein (SARS-CoV-2, UniProt P0DTC9 1-419); test: ELISA on recombinant protein
T8 construct: also called N protein

[9] = target: T9, SARS-CoV-2 spike S2 subunit (SARS-CoV-2, UniProt P0DTC2 686-1213); test: ELISA
T9 construct: domain: S2 subunit

[10] = target: T10, SARS-CoV-2 spike extracellular domain (SARS-CoV-2, UniProt P0DTC2 14-1213); test: ELISA
T10 construct: extracellular domain; also called spike protein of SARS-CoV-2

Binder | Ct value of culture supernatant, after 5 days of incubation (virus control 13.0) [1] | fold reduction of virus [1] | binding result [2] | binding result (SARS spike S1 subunit) | binding result [3] | binding result [4] | binding result [5] | Neutralization by PRNT EC50 [6] | binding result [7] | binding result [8] | binding result [9] | binding result [10] | Neutralization by FMNT EC50 [6]
B1 | 22.7 Ct | ~832 fold | no binding | no binding | no binding | binds | binds | 133 nM |  |  |  |  | 
B2 |  |  | no binding | no binding | no binding | binds | binds | 133 nM |  |  |  |  | 
B3 |  |  | no binding | no binding | no binding | no binding | no binding | 133 nM |  |  |  |  | 
B4 |  |  |  |  |  |  |  |  | binds | binds |  |  | 
B5 | 18.8 Ct | ~56 fold |  | no binding |  | no binding | no binding | 133 nM |  |  | no binding |  | 
B6 |  |  |  |  |  |  |  |  | binds | binds |  |  | 
B7 |  |  |  |  |  |  |  |  | binds | binds |  |  | 
B8 |  |  | no binding | binds | no binding | binds | binds | 111 nM |  |  |  |  | 
B9 |  |  | no binding | no binding |  | no binding | no binding |  |  |  | no binding | binds | 
B10 |  |  | no binding | no binding |  | no binding | no binding |  |  |  | no binding | binds | 
B11 | 23 Ct | ~1024 fold |  |  |  |  |  | 0.05 nM |  |  | no binding |  | 3.68 nM
B12 |  |  | no binding | no binding | no binding | no binding | no binding | 133 nM |  |  |  |  | 
B13 |  |  | no binding | binds | no binding | binds | binds |  |  |  | binds | binds | 
B14 |  | ~10100 fold |  |  |  |  |  | 8.67 nM |  |  | no binding |  | 0.51 nM
B15 | 22.7 Ct |  |  |  |  |  |  | 133 nM |  |  | no binding |  | 22.5 nM

From patent publication US20230279079A1 (CHANG GUNG MEMORIAL HOSPITAL LINKOU, published 2023)
